Laboratory results from patent US20260069689A1 (Regeneron, published 2026).
Positions count from the first letter of the chain named.

B1: mAb15156 (antibody, V domains shown)
VH: QLQLQESGPGLVKSSETLSLTCTVSASITGSTYYWGWIRQPPGKGLEWIGSIYYSGTTYYKASLKSRVTISVDTSKNQFSLKLTSVTVADTAVYYCVSHLLGNYHKYGMDVWGQGTTVTVSS
VL: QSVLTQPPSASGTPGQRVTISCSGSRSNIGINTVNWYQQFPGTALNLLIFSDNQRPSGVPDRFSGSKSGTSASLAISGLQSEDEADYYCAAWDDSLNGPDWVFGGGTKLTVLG
B2: mAb15164 (antibody, V domains shown)
VH: EVQLVESGGGLVQPGGSLRLSCAASGFAVSSNYMTWVRQAPGKGLEWVATIYSGDSTYYADSVKGRFTISRHNSKNTLSLQMNSLRADDTAIYYCARLSGVLSGTYNGAFDIWGQGTMVTVSS
VL: QSALTQPASVSGSPGQSITISCTGTSSDFGNYNIVSWYQQHPGQAPKVMIYEGNKRPSGVSNRFSGSKSGHTASLTISGLQAEDEADYYCSSYAGSSTWVFGGGTKLTVLG
B3: mAb15165 (antibody, V domains shown)
VH: EVQLVESGGGLVQPGGSLRLSCAASGFTVSSNYMSWVRQAPGKGLEWVSAIYSGDSTYYADSVKGRFTISKDNSKNTLYLQMNSLRGEDTAVYYCARLGGALQAYDGAFDYWGQGTLATVSS
VL: B2 VL with N31S, I34L, Q44K, V48L, N62I, H71N
B4: mAb15166 (antibody, V domains shown)
VH: EVQLVESGGGLVQPGGSLRLSCAASGFTVTSNYMSWVRQAPGKGLEWVSAIYSGESTYYADSVKGRFTISRDSSKNTLYLQMNSLRVEDTAVYYCASIHDYSNYVGGFDPWGQGTLVTVSS
VL: B2 VL with T25P, N31S, I34L, Q44K, V48L, N54T, H71N
B5: mAb15158 (antibody, V domains shown)
VH: EVQLVESGGGLVQPGGSLRLSCAASGFSFSSNWMSWVRQAPGKGLEWVGNINQDGSEKYYVDSVEGRFTISRDNAKKSLYLQMNSLRAEDTAVYYCARDLGVLWFGDFVDWGQGALVTVSS
VL: DIQMTQSPSSLSASVGDRVTITCRASQAISNSLAWYQQKPGKAPKLLLYAASTLESGVPSRFSGSGSGTDYTLTISSLQPEDFATYYCLQYYGSPRTFGQGTKVEIKR
B6: mAb15158 (antibody, V domains shown)
VH: B5 VH
VL: B5 VL
B7: mAb15161 (antibody, V domains shown)
VH: EVQLVESGGGLVQPGGSLRLSCAASGFTFSSYEMNWVRQAPGKGLEWVSYISSSGSILYYADSVKGRFTASRDNAKNSLYLQMNSLRAEDTGVYYCARREYQLLRPFEFWGQGTLVTVSS
VL: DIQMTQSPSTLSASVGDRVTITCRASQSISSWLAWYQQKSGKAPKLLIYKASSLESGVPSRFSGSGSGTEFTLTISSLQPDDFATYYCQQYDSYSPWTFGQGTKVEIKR
B8: mAb15150 (antibody, V domains shown)
VH: EVQLVETGGGLIQPGGSLRLSCAAPGFIVSSNYMSWVRQAPGKGLEWVSLLYPGGSTYYADSVKGRFTISRDNSKNTLYLQMNSLRADDTAVYYCARVLPIVEDHFDYWGQGTLVTVSS
VL: DIQLTQSPSFLSASVGDRVTITCRASQGMSSYLAWYQKKPGKAPKLLIYGATILQSGVPSRFSGSGSGTEFTLTISSLQPEDFATYYCQQLNSDPLYMYTFGQGTKLEIKR
B9: mAb15160 (antibody, V domains shown)
VH: EVQLVESGGGLVQPGGSLRLSCSASGFTFSRYAMYWVRQAPGKGLEYVSAISSDGGSTYDADSVKGRFTISRANSKNTLYLQMSSLRAEDTAVYYCVKGLRELLYYYYGMDVWGQGTTVTVSS
VL: DIQMTQSPSSLSASVGDRVTITCRAGQSISSFLNWYQQKPGKAPKLLIYAASSLQSGVPSRFSGSGSGTDFTLTISSLQPEDFATYYCQQSYITPFTFGPGTKVDIKR
B10: mAb15163 (antibody, V domains shown)
VH: EVQLVETGGGLIQPGESLRLSCAASGFIVSTNYMNWVRQAPGKGLEWVSVIYRGGSTYYADSVKGRFTISRDNSKNTLFLQMNSLRAEDTAVYYCARGHEDFDYDTPASGAFDIWGQGTMVTVSS
VL: QSALTQPPSASGSPGQSVTISCTGTSSDVGGHNYVSWYQQHPGKAPKVMIYEVSKRPSGVPDRFSGSKSGNTASLTVSGLQAEDEADYYCSSYAGSNKFVFGTGTKVTVLG
B11: mAb15157 (antibody, V domains shown)
VH: EVQLVESGGALVQPGGSLRLSCAASGFPFTIYAMTWVRQAPGKGLEWVSVITGSGDSTYYADSVKGRFTISRDNSKNTLYLQMNSLRAEDTAVYYCVKTGEGFFYYYYGMDVWGQGTTVTVSS
VL: QSVLTQPPSVSAAPGQKVTISCSGSSSNIGNSYISWYQQLPGTAPKLLIYVNNKRPSGIPDRFSGSKSGTSATLGITGLQTGDEADYYCGTWDSSLSAGVFGSGTKVTVLG
B12: mAb15157 (antibody, V domains shown)
VH: B11 VH
VL: B11 VL
B13: mAb15162 (antibody, V domains shown)
VH: EVQLVETGGGLIQPGGSLRLSCAASEFIVSRNYMSWVRQAPGKGLEWVSLIYSGGSTYYADSVKGRFTISRDNSKNILYLQMNSLRAEDTAVYYCARDRGGISDYWGQGTLVTVSS
VL: DIQMTQSPSSLSASVGDRVTITCQASQDINKYLNWFQQKPGKAPKLLIYDASNLETGVPSRFSGSGSGTDFTFTISSLQPEDIATYYCQQYDNLPRTFGQGTKLEIKR
B14: mAb15159 (antibody, V domains shown)
VH: EVQLVESGGGLVQPGGSLRLSCAASGITVSSNYMTWVRQAPGKGLEWVSLIYSGGSTFYADSVRGRFTISRDNSKNTLYLQMNSLRAEDTAVYYCARDLVVYGMDVWGQGTTVTVSS
VL: DIQLTQSPSSLSASVGDRVTITCRASQGISSYLAWYQQKPGKAPKLLIYAASTLQSGVPSRFSGSGSGTDFTLTISSLQPEDFATYYCQHLNSDPHTFGQGTKLEIKR
B15: mAb15159 (antibody, V domains shown)
VH: B14 VH
VL: B14 VL
B16: mAb15170 (antibody, V domains shown)
VH: B14 VH with S25T, T35S, R64K, D72H, N83S, V101D, Y102F
VL: B14 VL with S31N, A84G, H90Q, P95S, H96P, L104V
B17: mAb15151 (antibody, V domains shown)
VH: QVQLVESGGGVVQPGRSLRLSCAASGFVFNSYGMHWVRQAPGKGLEWVAVLWYEGSKNYYADSVKGRFTISRDNSKNTLYLQMNSLRAEDTAVYYCARHGSGSFFGYYLDYWGQGTLVTVSS
VL: DIQMTQSPSSLSASVGDRVTITCRASHNINDFLNWYQQKPGKAPRLLIYAASSLQSGVPSRFSGSGSGTDFTLTISSLQPEDFATYYCQESYTTPPTFGQGTKLEIKR

Tests used:
SARS-COV-2 RBD-MMH [1] = molecular target: SARS-COV-2 RBD-MMH (SARS-CoV-2); assay: SPR 37C, run with dissociation at pH 5.0
SARS-COV-2 RBD-MMH [2] = molecular target: SARS-COV-2 RBD-MMH (SARS-CoV-2); assay: SPR 37C
SARS-COV-2 RBD-MMH [3] = molecular target: SARS-COV-2 RBD-MMH (SARS-CoV-2); assay: SPR 37C, run with dissociation at pH 7.4
[4] = molecular target: T1, SARS-COV-2 RBD-MMH (SARS-COV-2 RBD extracellular domain with C-terminal myc-myc-hexahistidine tag) (SARS-CoV-2)
[5] = molecular target: T1, SARS-COV-2 RBD-MMH (SARS-COV-2 RBD …); assay: SPR 37C, mAb captured, pH 7.4 vs pH 6.0
[6] = molecular target: SARS-CoV-2 RBD.mmh (Spike amino acids Arg319-Phe541 with C-terminal myc-myc-6-Histidine tag) (SARS-CoV-2, UniProt P0DTC2 319-541)

| Binder | RBD.mmh Bound at pH 7.4 (RU) (SARS-COV-2 RBD-MMH [1]) | koff (SARS-COV-2 RBD-MMH [1]) | t½ (SARS-COV-2 RBD-MMH [1]) | t½ Ratio of pH 7.4 to pH 5.0 (SARS-COV-2 RBD-MMH [2]) | RBD.mmh Bound at pH 7.4 (RU) (SARS-COV-2 RBD-MMH [3]) | koff (SARS-COV-2 RBD-MMH [3]) | koff [4] | t½ at pH 6.0 [4] | t½ at pH 7.4 [4] | t½ Ratio of pH 7.4 to pH 6.0 [5] | IC50 [6] |
| --- | --- | --- | --- | --- | --- | --- | --- | --- | --- | --- | --- |
| B1 | 104 RU | 0.0158 s⁻¹ | 0.7 min | 2.3 | 92.6 RU | 0.00673 s⁻¹ | – | – | – | – | – |
| B2 | – | – | – | – | – | – | 0.0021 s⁻¹ | 5.5 min | 5.1 min | 0.9 | 0.245 nM |
| B3 | – | – | – | – | – | – | 0.00128 s⁻¹ | 9.1 min | 7.1 min | 0.8 | 0.189 nM |
| B4 | – | – | – | – | – | – | 0.0301 s⁻¹ | 0.4 min | 0.4 min | 1 | 0.475 nM |
| B5 | – | – | – | – | – | – | 0.00029 s⁻¹ | 40.1 min | 37 min | 0.9 | 0.309 nM |
| B6 | 122 RU | 9.7e-05 s⁻¹ | 119 min | 0.3 | 111 RU | 0.00031 s⁻¹ | – | – | – | – | – |
| B7 | – | – | – | – | – | – | 0.00107 s⁻¹ | 10.8 min | 10.3 min | 0.9 | 0.584 nM |
| B8 | – | – | – | – | – | – | 3.81e-05 s⁻¹ | 5.06 h | 103 min | 0.3 | 0.254 nM |
| B9 | – | – | – | – | – | – | 0.00283 s⁻¹ | 4.1 min | 5.3 min | 1.3 | 0.204 nM |
| B10 | – | – | – | – | – | – | 0.00104 s⁻¹ | 11.1 min | 23.4 min | 2.1 | 0.217 nM |
| B11 | – | – | – | – | – | – | 0.00766 s⁻¹ | 1.5 min | 2.9 min | 1.9 | 0.357 nM |
| B12 | 108 RU | 0.00702 s⁻¹ | 1.6 min | 1.7 | 106 RU | 0.00405 s⁻¹ | – | – | – | – | – |
| B13 | – | – | – | – | – | – | 0.00354 s⁻¹ | 3.3 min | 3.9 min | 1.2 | 0.756 nM |
| B14 | – | – | – | – | – | – | 0.000412 s⁻¹ | 28.1 min | 50 min | 1.8 | 0.156 nM |
| B15 | 45.5 RU | 0.000429 s⁻¹ | 27 min | 1.9 | 31.9 RU | 0.000231 s⁻¹ | – | – | – | – | – |
| B16 | – | – | – | – | – | – | 8e-05 s⁻¹ | 144 min | 108 min | 0.7 | 0.102 nM |
| B17 | – | – | – | – | – | – | 0.00454 s⁻¹ | 2.5 min | 1.7 min | 0.7 | 0.641 nM |
